The values below come from US10772909B2, “System and method for insulin-mimetic of cartilage, bone, or osteochondral repair and piezoelectric composite scaffold” (New Jersey Institute of Technology, priority 2016, dated 2020).

For this series, the system named is PBMCs. Briefly: PBMC proliferation assay (3H-TdR incorporation). Particulars: positive control, 1% PHA. Type of series: cell-based, human. The source says: Peripheral blood was obtained from four healthy subjects, two males and two females (ages 18-30 years old). Peripheral blood mononuclear cells (PBMCs) were isolated by Ficoll Hypaque (Sigma-Aldrich) gradient separation. Human MSCs were obtained from human bone marrow aspirates (Lonza, Walkersville, Md., USA) from four healthy subjects, two males and two females, ages 18-30 years old, according to previously published protocols and cryopreserved before use. Human MSCs were characterized for the expression of surface markers CD29, CD44, CD73, CD90, and CD105 and lack expression of CD14, CD34 and CD45 as determined by flow cytometry. The differentiation potency was determined by the differentiation of MSCs into osteoblasts, adipocytes and chondrocytes in vitro [32,33]. […]
The cytotoxicity of Na2WO4 was examined using PBMCs. Cell proliferation was measured using tritiated thymidine (^3H-TdR) incorporation as described in Kapoor et al.. […]
After 16 h, the cells were harvested on glass fiber filters (Cambridge Technology, Inc.) using a cell harvester (EMD Millipore). […] The radioactive incorporation of ^3H-TdR in the cells was measured using a liquid scintillation counter (Beckman; Fullerton, Calif., USA). The stimulation index (SI) was calculated as disintegration per minute (dpm) of treated group/dpm of unstimulated PBMCs (0 mM).

phytohemagglutinin [PHA]: the “stimulation index (SI)” value is on record as 11.5±1.2.
